This is an account of results in publication PMC11302929.

As a reminder, the stoichiometry N is the number of molecules, sites or subunits per partner or assembly.

Experiment [1] addresses recombinant soluble NDV HN ectodomain with tetrabrachion tetramerization domain (HN-TE) (not stated | Newcastle disease virus). The experiment in a line: SEC; Superdex 200 Increase 10/300 GL column, freshly purified NDV HN proteins.
For experiment [2], the target named is recombinant soluble NDV HN ectodomain including the stalk domain, without oligomerization domain (HN-M) (Newcastle disease virus). The description is as above.

Where “and” joins values, the source holds several entries; their conditions need not be identical. Identical values can stand only once.

For the substance “recombinant soluble NDV HN ectodomain with tetrabrachion tetramerization domain (HN-TE)”, in experiment [1], the stoichiometry N amounted to 4.

As to “recombinant soluble NDV HN ectodomain including the stalk domain, without oligomerization domain (HN-M) (domain or fragment)”, the stoichiometry N in experiment [2] is 2 and 4.
